A short description of the data set: total protein half-life in vivo (active degradation + dilution); higher = more stable protein.
Setting [1] is: E. coli NCM3722 delta-clpP delta-lon delta-hslV, growth: N-lim chemostat, doubling time 6 h.
Setting [2] is: E. coli NCM3722 delta-clpP, growth: N-lim chemostat, doubling time 6 h.
Where [3] appears, read: E. coli NCM3722 delta-hslV, growth: N-lim chemostat, doubling time 6 h.
Where [4] appears, read: E. coli NCM3722 delta-lon, growth: N-lim chemostat, doubling time 6 h.
[5] abbreviates: E. coli NCM3722 delta-smpB, growth: N-lim chemostat, doubling time 6 h.
The mark [6] stands for this setting: wild type E. coli NCM3722, growth: C-lim chemostat, doubling time 3 h.
[7] abbreviates: wild type E. coli NCM3722, growth: C-lim chemostat, doubling time 6 h.
Setting [8] is: wild type E. coli NCM3722, growth: C-lim chemostat, doubling time 12 h.
The mark [9] stands for this setting: wild type E. coli NCM3722, growth: N-lim chemostat, doubling time 6 h.
Where [10] appears, read: wild type E. coli NCM3722, growth: N-lim chemostat, doubling time 12 h.
[11] abbreviates: wild type E. coli NCM3722, growth: P-lim chemostat, doubling time 12 h.
The mark [12] stands for this setting: wild type E. coli NCM3722, growth: P-lim chemostat, doubling time 6 h.

± gives the standard deviation of the averaged measurements.

For “MFRRRGVTLTKALLTAVCMLAAPLTQAISVGNLTFSLPSETDFVSKRVVNNNKSARIYRIAISAIDSPGSSELRTRPVDGELLFAPRQLALQAGESEYFKFYYHGPRDNRERYYRVSFREVPTRNHTRRSPTGGVVSTEPVVVMDTILVVRPRQVQFKWSFDKVTGTVSNTGNTWFKLLIKPGCDSTEEEGDAWYLRPGDVVHQPELRQPGNHYLVYNDKFIKISDSCPAKPPSAD”, the “total protein half-life in vivo” value by setting is: under setting [1], 4.58 h; under setting [2], 4.57 ± 0.28 h; under setting [3], 3.66 h; under setting [4], 4.37 h; under setting [5], 4.89 ± 0.82 h; under setting [6], 2.51 ± 0.53 h. For the same substance, the “total protein half-life in vivo” value reads like this: under setting [7], 3.37 h; under setting [8], 9.74 h; under setting [9], 3.84 h; under setting [10], 6.84 h; under setting [11], 9.993 ± 0.096 h.

Consider “MSLKEKTQSLFANAFGYPATHTIQAPGRVNLIGEHTDYNDGFVLPCAIDYQTVISCAPRDDRKVRVMAADYENQLDEFSLDAPIVAHENYQWANYVRGVVKHLQLRNNSFGGVDMVISGNVPQGAGLSSSASLEVAVGTVLQQLYHLPLDGAQIALNGQEAENQFVGCNCGIMDQLISALGKKDHALLIDCRSLGTKAVSMPKGVAVVIINSNFKRTLVGSEYNTRREQCETGARFFQQPALRDVTIEEFNAVAHELDPIVAKRVRHILTENARTVEAASALEQGDLKRMGELMAESHASMRDDFEITVPQIDTLVEIVKAVIGDKGGVRMTGGGFGGCIVALIPEELVPAVQQAVAEQYEAKTGIKETFYVCKPSQGAGQC [P0A6T3]”, for which the “total protein half-life in vivo” value came to 5.59 ± 2 h under setting [1]; 6.35 h under setting [2]; 5.09 ± 1.2 h under setting [3]; 5.29 ± 0.75 h under setting [4]; 4.573 ± 0.04 h under setting [5]; 3.22 ± 0.53 h under setting [6]. The “total protein half-life in vivo” value by setting is: under setting [7], 5.71 ± 0.33 h; under setting [8], 12.7 ± 2 h; under setting [9], 4.53 ± 0.13 h; under setting [10], 7.14 ± 0.81 h; under setting [12], 6.11 ± 0.1 h; under setting [11], 11.9 ± 0.71 h.

“MATVPTRSGSPRQLTTKQTGDAWEAQARRWLEGKGLRFIAANVNERGGEIDLIMREGRTTIFVEVRYRRSALYGGAAASVTRSKQHKLLQTARLWLARHNGSFDTVDCRFDVVAFTGNEVEWIKDAFNDHS”: the “total protein half-life in vivo” value under setting [1] was 6.46 ± 0.81 h; the “total protein half-life in vivo” value under setting [3] was 2.03 h; the “total protein half-life in vivo” value under setting [5] was found to be 2.14 h; the “total protein half-life in vivo” value under setting [7] is 2.97 h; the “total protein half-life in vivo” value under setting [8] came to 2.89 ± 0.49 h; the “total protein half-life in vivo” value under setting [12] was determined as 1.88 h. Under setting [11], the “total protein half-life in vivo” value came to 3.74 h.

On to “MGKTNDWLDFDQLAEEKVRDALKPPSMYKVILVNDDYTPMEFVIDVLQKFFSYDVERATQLMLAVHYQGKAICGVFTAEVAETKVAMVNKYARENEHPLLCTLEKA [P0A8Q6]”, for which the “total protein half-life in vivo” value reads like this: under setting [1], 5.9 ± 0.35 h; under setting [3], 0.855 ± 0.013 h; under setting [4], 1.05 h; under setting [6], 0.522 h; under setting [7], 0.628 h; under setting [8], 0.456 h. Also, under setting [11], the “total protein half-life in vivo” value was determined as 0.869 h.

In the case of “MQTFQADLAIVGAGGAGLRAAIAAAQANPNAKIALISKVYPMRSHTVAAEGGSAAVAQDHDSFEYHFHDTVAGGDWLCEQDVVDYFVHHCPTEMTQLELWGCPWSRRPDGSVNVRRFGGMKIERTWFAADKTGFHMLHTLFQTSLQFPQIQRFDEHFVLDILVDDGHVRGLVAMNMMEGTLVQIRANAVVMATGGAGRVYRYNTNGGIVTGDGMGMALSHGVPLRDMEFVQYHPTGLPGSGILMTEGCRGEGGILVNKNGYRYLQDYGMGPETPLGEPKNKYMELGPRDKVSQAFWHEWRKGNTISTPRGDVVYLDLRHLGEKKLHERLPFICELAKAYVGVDPVKEPIPVRPTAHYTMGGIETDQNCETRIKGLFAVGECSSVGLHGANRLGSNSLAELVVFGRLAGEQATERAATAGNGNEAAIEAQAAGVEQRLKDLVNQDGGENWAKIRDEMGLAMEEGCGIYRTPELMQKTIDKLAELQERFKRVRITDTSSVFNTDLLYTIELGHGLNVAECMAHSAMARKESRGAHQRLDEGCTERDDVNFLKHTLAFRDADGTTRLEYSDVKITTLPPAKRVYGGEADAADKAEAANKKEKANG”, the “total protein half-life in vivo” value runs as follows: under setting [1], 5.99 ± 0.19 h; under setting [2], 5.68 ± 0.083 h; under setting [3], 6.59 ± 0.5 h; under setting [4], 6.24 ± 0.66 h; under setting [5], 5.45 ± 0.11 h; under setting [6], 2.97 ± 0.033 h. In addition, the “total protein half-life in vivo” value worked out at 6.38 ± 0.42 h under setting [7]; 12.1 ± 1.9 h under setting [8]; 6.2 ± 0.28 h under setting [9]; 11.3 ± 1.7 h under setting [10]; 6.03 ± 0.064 h under setting [12]; 13.4 ± 0.38 h under setting [11].

Regarding P0ADE2, the “total protein half-life in vivo” value reads like this: under setting [1], 1.56 h; under setting [7], 0.174 h; under setting [12], 0.104 h; under setting [11], 0.888 ± 0.58 h.

Take “METPQPDKTGMHILLKLASLVVILAGIHAAADIIVQLLLALFFAIVLNPLVTWFIRRGVQRPVAITIVVVVMLIALTALVGVLAASFNEFISMLPKFNKELTRKLFKLQEMLPFLNLHMSPERMLQRMDSEKVVTFTTALMTGLSGAMASVLLLVMTVVFMLFEVRHVPYKMRFALNNPQIHIAGLHRALKGVSHYLALKTLLSLWTGVIVWLGLELMGVQFALMWAVLAFLLNYVPNIGAVISAVPPMIQVLLFNGVYECILVGALFLVVHMVIGNILEPRMMGHRLGMSTMVVFLSLLIWGWLLGPVGMLLSVPLTSVCKIWMETTKGGSKLAILLGPGRPKSRLPG [P0AGM0]”: the “total protein half-life in vivo” value under setting [1] was 6.64 ± 0.097 h; the “total protein half-life in vivo” value under setting [5] is 5.16 h; the “total protein half-life in vivo” value under setting [7] is 7.02 h; the “total protein half-life in vivo” value under setting [8] stood at 11.5 ± 0.41 h; the “total protein half-life in vivo” value under setting [11] was 13.6 h.

Consider “MSWIERIKSNITPTRKASIPEGVWTKCDSCGQVLYRAELERNLEVCPKCDHHMRMTARNRLHSLLDEGSLVELGSELEPKDVLKFRDSKKYKDRLASAQKETGEKDALVVMKGTLYGMPVVAAAFEFAFMGGSMGSVVGARFVRAVEQALEDNCPLICFSASGGARMQEALMSLMQMAKTSAALAKMQERGLPYISVLTDPTMGGVSASFAMLGDLNIAEPKALIGFAGPRVIEQTVREKLPPGFQRSEFLIEKGAIDMIVRRPEMRLKLASILAKLMNLPAPNPEAPREGVVVPPVPDQEPEA [P0A9Q5]”, for which the “total protein half-life in vivo” value by setting is: under setting [1], 5.95 ± 0.21 h; under setting [2], 6.46 ± 0.77 h; under setting [3], 6.167 ± 0.012 h; under setting [4], 5.92 ± 0.97 h; under setting [5], 5.66 ± 0.42 h; under setting [6], 3.03 ± 0.31 h. For the same substance, the “total protein half-life in vivo” value is 6.15 ± 0.42 h under setting [7]; 11.2 ± 0.44 h under setting [8]; 6.06 ± 0.44 h under setting [9]; 12.1 ± 0.061 h under setting [10]; 5.81 ± 0.093 h under setting [12]; 12.3 ± 0.26 h under setting [11].

“MVSLEKNDHLMLARQLPLKSVALILAGGRGTRLKDLTNKRAKPAVHFGGKFRIIDFALSNCINSGIRRMGVITQYQSHTLVQHIQRGWSFFNEEMNEFVDLLPAQQRMKGENWYRGTADAVTQNLDIIRRYKAEYVVILAGDHIYKQDYSRMLIDHVEKGARCTVACMPVPIEEASAFGVMAVDENDKIIEFVEKPANPPSMPNDPSKSLASMGIYVFDADYLYELLEEDDRDENSSHDFGKDLIPKITEAGLAYAHPFPLSCVQSDPDAEPYWRDVGTLEAYWKANLDLASVVPELDMYDRNWPIRTYNESLPPAKFVQDRSGSHGMTLNSLVSGGCVISGSVVVQSVLFSRVRVNSFCNIDSAVLLPEVWVGRSCRLRRCVIDRACVIPEGMVIGENAEEDARRFYRSEEGIVLVTREMLRKLGHKQER [P0A6V1]”: the “total protein half-life in vivo” value was found to be 6.16 ± 0.19 h under setting [1]; 6.42 ± 1 h under setting [3]; 5.94 ± 0.29 h under setting [4]; 5.54 ± 0.52 h under setting [5]; 3.34 ± 0.11 h under setting [6]; 6.04 ± 0.72 h under setting [7]. Besides, the “total protein half-life in vivo” value is, setting by setting: under setting [8], 12.2 ± 0.15 h; under setting [9], 5.535 ± 0.042 h; under setting [10], 9.99 ± 0.24 h; under setting [12], 6.46 ± 0.65 h; under setting [11], 12.2 ± 0.32 h.

These data come from the supplement of paper PMC11246515.
